From the nanobody polyreactivity screen of Harvey et al. (2022)

Experiment: yeast display, Sf9 membrane polyspecificity reagent, FACS + sequencing; frameworks hold sequencing errors
In short: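 A synthetic nanobody library was expressed on Saccharomyces cerevisiae BJ5465 by galactose induction for 36–48 hours. The library was stained for 1 hour at 4 °C with 10% biotinylated, detergent-solubilized Sf9 membrane reagent and enriched with streptavidin microbeads before FACS. Low and high (top ~1%) gates were set on anti-HA fluorescence for expression and streptavidin fluorescence for reagent binding, and each polyreactivity label reflects the gate of origin.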

Sequence | polyreactivity (PSR sort gate)
QVQLVESGGGLVQAGGSLRLSCAASGSIFGGNAMGWYRQAPGKERELVAAITSTVSTNYADSVKGRFTISRDNAKNTVYLQMNSLKPEVTAVYYCATDSSNVEGDYWGQGTQVTVSS | low polyreactivity
QVQLVESGGGIVQAGGSLRLRCAASGFTFSRNAMVWYRQAPGKERELVAAITWSGGRTYYADSVKGRFTISRDNAKNTVYLQMNSLKPEDTAVYYCAARKYHLRSAYDYWGQGTKVTVSS | low polyreactivity
QVQLVESGGGLVQAGGSLRLSCAASGLIFENNAMGWYRQAPGKERELVAAITKGGGSTYYADSVKGRFTISRDNAKNTVYLQMNSLKPVDTAVYYCAKDHPWHRYWQYWYDYWGLGTQVTVSS | low polyreactivity
QVQLVESGGGLVQAGGSLRLSCAASGSIFAPYAMGWYRQAPGKERELVAAISRSGGSTYYADSVKGRFTISRDNAKNTVYLQMNSLKPEDTAVYYCAVRNGLRQYRLDYWGQGTQVTVSS | high polyreactivity
QVQLVESGGGLVQAGGSLRLSCAASGSIFNKYAMGWYRQAPGKERELVAAISVSGTRTYYADSVKGRFTISRDTAKNTVYLQMNSLKPEDTAVYYCATKFFRTAYEYWGQGTQVTVSS | high polyreactivity
QVHLVESGGGLVQAGGSLRLSCAASGYTFVVYAMGWYIQAPGKERELVAAINKSGGSTYYADSVKGRFTISRDHAKNSVYLQMNSLKAEDTAFYYCAADLLKLRTDYYWGQGTQVTVSS | low polyreactivity
QVQLVESGGGLVQAGGSLRLSCAASGFTFDWYAMGWSRQAPGKERELVAAISSSGTSRYYADSVKGRFTISRDNAKNTVYLQMNSLKPEDTAVYYCAARWYYVTPLRRYGYWGQGTQVTVSS | high polyreactivity
QVQLVESGGGLVQARGSLRLSCAASGSTFPYYTMGWYRQAHWKERELVAAITTRGGGTYYADSVKGRFTISRDNAKNTVYLKMNSLKPEDTAVYYCAAKTIYDTRGIRHYYWGKGTQVTVSS | high polyreactivity
QVQLVESGGGLVQAGGSLRLSCAASGITFWKYAMGWYRQAPGKERELVAAISGRGGSTYYADSVKGRFTISRDNAKNTVYLQMNSLKPEDTAVYSCDTRTYYRYPVFYWGQGTQVTVSS | high polyreactivity
QVQLVESGGCLVQAGGSLRLSCAASGSTFTLYAMGWYRPAPGKERELVAAIRRGGSTNYADSVKGRFTISRDNAKNTDYLQMNSLKPEDTAVYYCAADSYTSRSRYSGSGGYDYGGQGTQVTVSS | low polyreactivity
QVQLVESGGGIVQAGGSLRLSCAASGSTVVIYTMGWSRQAAGKEREFVASLSVSGGSTYYADSVKGRFTISRDYAKKTVYLQMNSLKPEDTAVYYCAAGYPYYYWTPYYYWGQGTQVTVSS | high polyreactivity
QVQLVESGGGLVQAGGSLRLSCAATGRTFSGNAMGWYRQAPAKERELVAAISRSGGTTYYADSVKGRFTISRDNAKNPVYLQMNSLKPEDTAVYYCNRGWANWLGPDDYWGQGNQVTVSS | high polyreactivity
QVQLVESGGGLVQAGGSLRLSCAASGIIFTSNTMGWYRPAPGKEREFVASINWNGSSTYADSVKGRFTISRDNAKNTVYLQMYSLKPDDTAVYYCNADSNRNSVQFSLYDYWGQGTQVTVSS | low polyreactivity
QVQLVESGGGLVQAGGSLRLSCAASGFIFSWNAMGWYRQAPGKERELVAAITNRGGSTYYADSVKGRFTISRDNAKNTVYLQMNSLKPEDTAVYYCAKRSSRWGRTPYDYWGQGTQVTVSS | high polyreactivity
QVHLVESGGGLVQAGGSLRLCCAASGITFQVYAKGCYRPAPGKERELVAAINWSGTRTYYADSVKGRFTISRDNAKNTVYLQMNSLKPEDTAVYYCAAAERSLGYYYWGQGTQVTVTS | high polyreactivity
QVQLVESGGGLVQAGGSLRLSCAASGSTINHYAMGWYRQAPGKERELVAAISWSGGSTRYADSVKGRFTISRDNAKNTVYLQMNSLKPEDTAVYYCAARGYGKYYYWGQGTQVTVSS | high polyreactivity
QVQLVESGGGLVQAGGSLRLSCAASGSTFNRNAMGWYRQAPGKERELVAAISWRGDSTSYADSVKGRFTISRDNAKNTVYLQMNSLKPEDTAVYYCATAHDYAFYRYWYVPSEYNYWGQGSQVTVSS | low polyreactivity
QVQLVESGGGLVQAGGSLRLSCAATGSTFATNAMGWYKQAPGKEREFVAAISRRGGRTYYADSVKGRFTISRDNAKNTVYLKMNSVKPEDTAVYYCNTLRVGWGQGTQVTVSS | high polyreactivity
QVQLVESGGGLVQAGGSLRLSCAASGYTFGKYAMGWYRQAPGKEREWVAGISSRGGSTYYADSVKGRFTISRDNAKNTVYLQMNSLKPEDTAVYYCAAVAYTGGPRKLGFNYWGQGTQVTVSS | high polyreactivity
QVQIVESGGGLVQAGGSLRLSCAASGTFARYAMGWYRQAPRKERELVAAITRRGGNTYYADSVKGRFSISRDNAKNTVYLPMNSQKPEDTAVYYCAILGEDTNGYWGQGTQVTVSS | high polyreactivity
QVQLVESGGGLDQAGGSLRLSCAASGSIILVNAMGWYRQAPGKERELVAAISWRGGRTRYADSVKGRFTISRDNAKNTVYLQMNSLKPEDTAVYYCAAAGRPVGPRYDYWGQGTQVTVSS | high polyreactivity
QVQLVESGGGLVQAGGSLRISCAASGFTFRWYTMGWYRQAPGKERELVAAISWSGTSTYYADSVKGRFTISRDNAKNTVYLQMNSLKPEDTAVYYCAAADFYYTGADDYWGQGTQVTVSS | high polyreactivity

Sequence | polyreactivity (PSR sort gate)
QVQLVESGGGLVQAGGSLRLSCAASGIIFWVNAMGWYRQAHGKETELVAAITISGVSTYYADSVKGRFTISRDNAKNTVYLQMNSLKPEDTAVYYCAKDPTFSSSFAVSLGFDSWGQGTQVTVSS | low polyreactivity
QVQLVESGGGLVQAGGSLRLICAASGRIIARNAMGWYRQAPGKERELVAAITARGARTYYADSVKGRFTISRDNAKNTVYLQMNSLKPEDTAVYYCAVVQGNVYYTGDDYWGQGTQVTVSS | high polyreactivity
QVQLVESGGGLVKAGGSLRISCAASGFILGQYAMGWYRQAPGKERELVAAISRSSSTTYADSVKGRFTISRDKAKNTVYLQMNSLNPEDTAVYYCAAYYWYVTYFRREIAYEYWGQGTQVTVSS | low polyreactivity
QVQLVESGGGLVQAGGSLRLSCAASGSIFKYYAMGWYRQAPGKERELVAAIDWSGGNTYADSVKGRFTISRDNAKNTVYLQMNSLKPEDTAVYYCAADAFAVYRITSYNGSDSWGQGTQVTVSS | high polyreactivity
QVQLVESGGVLVQAGGSLRLICAASGSIFGWNTKGWYRQSAGKERELVAGITRGGSTYYADSVKGRFTISRDNAKNTVYLQMNRQKPEDTAVYYCAALVYRAWEFEFWGQGTQVTVSS | high polyreactivity
QVQLVESGGGLVQAGGSLRLSCAASGSTYENAMGWYRQAPGKERELVAVISRSGGSTYYADSVKGRFTISRDNAKNTVYLQMNSLKPEDTAVYYCATVYSAWSWVHGYYVAMDYWGQGTQVTVSS | high polyreactivity
QVQLVESGGGLVQAGGSLRLSCAASGITFKFYAMGWYRQAPGKERELVAAIDSRGGSTYYADSVKGRFTISRDNAKNTVYLQMNSLKPEDTSVYYCNKVGRRKLDYWGQGTQVTVSS | high polyreactivity
QVQLQDSGGGLVQAVGSQRMSCAASGYIFYFQYMGWYRQAPGKEREFVAAISDGANTNYADSVKGRFTISRDNAKNTEYLQMYCLKPEDTAVYYCAVYADENYYYIYWGQGTQVTVSS | low polyreactivity
QVQLVESGGGLVQAGGSLRLSCAASGSILFTNAMGWYRQAPGKERELVAAISSGGSTYYADSVKGRFTISRDNAKNTVYLQMNSLKPEDTAVYYCAADQLNVGREYVEYDYWGQGTQVTVSS | low polyreactivity
QVQLVESGGGLVQAGGSLRLSCAASGRTFSVNAMGWYRQAPGKERELVAAIAWDGGSTYYADSVKGRFTISRDNAKNTVYLQMNSLKPEDTAVYYCNKDLYYAYDYWGQGTQVTVSS | low polyreactivity
QVQLVESGGGLVQEGGSLRLSCAASGSIFDVYAMGWSRQGPGKERELVAAISSSGSTYYADSVKGRFTISRDNAKNTVYLQMNSLKPEDTAVYYCAAVQADDDDYYYWGQGTQVTVSS | low polyreactivity
QVQLVESGGGLVQAGGSLRLSCAASGSTFPSYAMGWYRPAPGKERELVAAINSGGGTNYADSVKGRFTISRDNAKNTVYLQMNSLKPEDTAVYYCAKSRYEYTKTEGGYWGQGTQVTVSS | low polyreactivity
QVQLVESGGGLVQAGGSLRLSCAASGRIFGYYAMGWYRPAPGKEMELVAAIRYSSGRTYYADSVKGRFTISRDNAKNTVYLQMNSLKPEDTAVYYCAAKDQATYQLNYWGQGTQVTVSS | high polyreactivity
QVQLVESAGGLVQAGGSLRLICAASGRIFGGNTRGWYREAPGKERELGASIRSRGGRTNYADSLNGRFTISRDTAKNTVYLQMNSLQPEDTSVYYCDATQIYRFDYWGQGTQVTVSS | low polyreactivity
QDQLVESVGGLVQAGGSLRLSCAASGSIFIGYAMGWYRQAPGKERELVAAITSGGSTYADSVKGRFTISRDNAKNTVYLQMNSLKPEDTAVYYCAARFFLVTLDYCGQGTQVTVSS | low polyreactivity
QVQLVESGGGLVQAGGSLRLSCAASGYTFYSNAMGWYRQAPGKERELVAVISRGGGTYYADSVKGRFTISRDNAKNTVYLQMNSLKPEDTAVYYCARRIGHGSRPYWLETWRYPYEYWGQGTQVTVSS | low polyreactivity
QDQLVESGGGLVQAGGSLRLSCAASGFTFPVYAMGWYRQAPGKEWELVAAITRGGSTNYADSVKGRFTISRDNAKNTVYLQMNSLKPEDTAVYYCNADYAVAYHPDLGDYWGQGTQVTVSS | low polyreactivity
QVQLVEAGGGLVQAGGSLRLSCAASGGIFSTYTMRWYRQAPGKERELVAAITTGNSTYYADSVKVRFTISRDNAKNTVYLQMNSLKPEDSAVYYCAAFADSRDYYRRLIHDGYDYWGQGTQVTVSS | low polyreactivity
QVQLVESGGGLVQAGGSLRLSCAASGRTFRGYAMGWYRQAPGKERELVAAISSGGSTYYADSVKGRFTISRDNAKNTVYLQMNSLKPEDTAVYYCAVAYYPHGREGAHFQYGYDYWGQGTQVTVSS | low polyreactivity
QVQLVESGGGLVQAGGSLRLSCAASGSTLPYNAMGWYRQAPGKERELVAAISKSGGRTYYADSVKGRFTISRDNAKNTVYLQMNSLKPEDTAVYYCNAGPYRGGGGSSRYYWGQGTQVTVSS | high polyreactivity
QVQLVESGGGLVQAGGSLRLSCAASGSTFVPYTMGWYRQAPGKERELVAAISGSGGTDYADSVKGRFTISRDNAKNTVYLQMNSLKPEDTAVYYCATDGLDFWFIYDYWGQGTHVTVSS | low polyreactivity
